Results on three molecules are retold here after article doi:10.1101/2023.07.12.548668.

B1: 30mer DNA (random) (dsDNA)
DNA 1: GATCCCTCTAGATATCGGGCCCTCGATCCG
DNA 2: CGGATCGAGGGCCCGATATCTAGAGGGATC
B2: 30mer GC-rich DNA (dsDNA)
DNA 1: TACCGGGGCGCGAGCCCAGCGCTCCTCCCA
DNA 2: TGGGAGGAGCGCTGGGCTCGCGCCCCGGTA
B3: 30mer AT-rich DNA (dsDNA)
DNA 1: GAAGTAAAATTAAAAAAACAAAAAGAAGCT
DNA 2: AGCTTCTTTTTGTTTTTTTAATTTTACTTC

In this data set the target is XLF (UniProt Q9H9Q4 1-299). The data set can be described thus: NMR titration (2D lineshape, TITAN); apparent KD; NMR buffer (composition, salt and pH not in material); 800 MHz, 298 K stated for relaxation measurements; EMSA buffer not given. The note with it: protein: recombinant; tags: N-terminal 6xHis-TEV; chain copies: 2; blunt.
Chain of XLF (Q9H9Q4 whole entry): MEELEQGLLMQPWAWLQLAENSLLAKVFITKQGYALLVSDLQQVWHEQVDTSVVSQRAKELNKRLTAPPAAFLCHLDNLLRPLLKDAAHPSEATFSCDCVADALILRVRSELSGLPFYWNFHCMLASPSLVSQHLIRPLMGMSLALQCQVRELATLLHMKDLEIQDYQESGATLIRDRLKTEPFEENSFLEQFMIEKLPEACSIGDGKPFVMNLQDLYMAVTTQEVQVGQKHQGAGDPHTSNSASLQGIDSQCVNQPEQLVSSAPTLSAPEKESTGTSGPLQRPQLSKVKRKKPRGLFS
For B1, the Kd was found to be 14.3 ± 0.9 µM.
To B2 belongs 6.39 ± 0.81 µM.
As for B3, the Kd was found to be 4.3 ± 0.42 µM.
